Experimental data reported in paper PMC4676782.
Like-named read-outs stand apart in the source and are kept apart here. Each block holds one molecule with its values, some of them ahead of it.

Assays:
[1] = target: hCES1 N79Q (aglycosylated hCES1) (human) (UniProt P23141); assay: AUC; sedimentation velocity, 20°C, 2, 1.0 and 0.5 mg/mL protein in 20 mM TrisHCl, pH 7.5, 200 mM NaCl, 40,000 rpm; c(S) analysis with SEDFIT
[2] = target: hCES1 N79Q (aglycosylated hCES1) (human) (UniProt P23141); assay: SEC; HiLoad 16/60 Superdex 200, 200 mM NaCl, 20 mM Tris-HCl, pH 7.5; molecular weight estimated from globular protein standards
[3] = target: hCES1 S221A (catalytically inactive mutant) (human) (UniProt P23141); assay: AUC; sedimentation velocity, 20°C, 2, 1.0 and 0.5 mg/mL protein in 20 mM TrisHCl, pH 7.5, 200 mM NaCl, 40,000 rpm; c(S) analysis with SEDFIT
[4] = target: hCES1 S221A (catalytically inactive mutant) (human) (UniProt P23141); assay: SEC; HiLoad 16/60 Superdex 200, 200 mM NaCl, 20 mM Tris-HCl, pH 7.5; molecular weight estimated from globular protein standards
[5] = target: Human Carboxylesterase 1 (hCES1), wild type, glycosylated (human) (UniProt P23141); assay: AUC; sedimentation velocity, 20°C, 2, 1.0 and 0.5 mg/mL protein in 20 mM TrisHCl, pH 7.5, 200 mM NaCl, 40,000 rpm; c(S) analysis with SEDFIT
[6] = target: Human Carboxylesterase 1 (hCES1), wild type, glycosylated (human) (UniProt P23141); assay: SEC; HiLoad 16/60 Superdex 200, 200 mM NaCl, 20 mM Tris-HCl, pH 7.5; molecular weight estimated from globular protein standards
[7] = 4-NPA hydrolysis, A405, specific activity; conditions: glycan lost; control: glycosylated hCES1
[8] = sedimentation velocity analytical ultracentrifugation; conditions: glycan lost; control: glycosylated hCES1
[9] = 4-NPA kinetics, allosteric sigmoidal fit; conditions: glycan lost; control: glycosylated hCES1
[10] = N-glycosylation at N79
[11] = size exclusion chromatography; conditions: glycan lost; control: glycosylated hCES1
[12] = crystal structure superposition, Cα rmsd; conditions: glycan lost; control: glycosylated hCES1 structure (5a7f)

stoichiometry N [1]: 3 | stoichiometry N [2]: 3
Molecule: hCES1 N79Q (aglycosylated hCES1) (from UniProt P23141 18-567) (enzyme)

stoichiometry N [3]: 3 | stoichiometry N [4]: 3
Molecule: hCES1 S221A (catalytically inactive mutant) (from UniProt P23141 18-567) (enzyme)

stoichiometry N [5]: 3 | stoichiometry N [6]: 3
Molecule: Human Carboxylesterase 1 (hCES1), wild type, glycosylated (from UniProt P23141 18-567) (enzyme)

B1: Human Carboxylesterase 1 (hCES1): N79Q (protein)
parent chain: MWLRAFILATLSASAAWGHPSSPPVVDTVHGKVLGKFVSLEGFAQPVAIFLGIPFAKPPLGPLRFTPPQPAEPWSFVKNATSYPPMCTQDPKAGQLLSELFTNRKENIPLKLSEDCLYLNIYTPADLTKKNRLPVMVWIHGGGLMVGAASTYDGLALAAHENVVVVTIQYRLGIWGFFSTGDEHSRGNWGHLDQVAALRWVQDNIASFGGNPGSVTIFGESAGGESVSVLVLSPLAKNLFHRAISESGVALTSVLVKKGDVKPLAEQIAITAGCKTTTSAVMVHCLRQKTEEELLETTLKMKFLSLDLQGDPRESQPLLGTVIDGMLLLKTPEELQAERNFHTVPYMVGINKQEFGWLIPMQLMSYPLSEGQLDQKTAMSLLWKSYPLVCIAKELIPEATEKYLGGTDDTVKKKDLFLDLIADVMFGVPSVIVARNHRDAGAPTYMYEFQYRPSFSSDMKPKTVIGDHGDELFSVFGAPFLKEGASEEEIRLSKMVMKFWANFARNGNPNGEGLPHWPEYNQKEGYLQIGANTQAAQKLKDKEVAFWTNLFAKKAVEKPPQTEHIEL
enzymatic_activity, other: specific activity [7]: no change, 98 vs 73, The purified aglycosylated enzyme was found to be more active than glycosylated hCES1 | oligomerisation [8]: no change | enzymatic_activity, other: Hill coefficient [9]: no change, 1.57 +/- 0.4 vs 1.46 +/- 0.26 | enzymatic_activity, other: Khalf [9]: no change, 1090 +/- 343.3 vs 1123 +/- 280.2 | enzymatic_activity, other: Vmax [9]: no change, 10.92 +/- 2.01 vs 9.25 +/- 1.30 | enzymatic_activity [10]: no change, specific activity 73 (hCES1) vs 98 (N79Q) µmol min-1 μg-1; Vmax 9.25 +/- 1.30 vs 10.92 +/- 2.01 μMmin-1; h 1.46 vs 1.57 | expression_or_secretion [10]: no change, 39 mg/L (N79Q, transient HEK293T) vs 64 mg/L (hCES1, stable HEK293 Gnt1-/-) | oligomerisation [10]: no change, trimer, apparent molecular weight 152 kDa | structure_or_conformation [10]: no change, rmsd 0.47 Å (vs hCES1) and 0.3 Å (vs S221A) for all Cα atoms | oligomerisation [11]: no change | structure or conformation, other: rmsd to control [12]: 0.47 Å
